In US20260151494A1 (ARO BIOTHERAPEUTICS, published 2026):
Substitutions are numbered along the chain they refer to.

B1: CD71-binding FN3 domain SEQ ID NO 380 (designed binder)
chain: MLPAPKNLVVSRVTEDSARLSWTAPDAAFDSFFIGYLEPQPPGEAIGLFVPGSERSYDLTGLKPGTEYNVTIQGVKGGFPSMPLSAIFTT
B2: CD71-binding FN3 domain SEQ ID NO 375 (designed binder)
chain: B1 chain with G47D, F49T
B3: CD71-binding FN3 domain SEQ ID NO 391 (designed binder)
chain: B1 chain with V9I, G47S, F49Y, M82D, S85Q
B4: CD71-binding FN3 domain SEQ ID NO 347 (designed binder)
chain: B1 chain with M82E, S85K, I87A
B5: CD71-binding FN3 domain SEQ ID NO 387 (designed binder)
chain: B1 chain with G47H, F49V, M82D, S85Y, I87W
B6: CD71-binding FN3 domain SEQ ID NO 401 (designed binder)
chain: B1 chain with G47A, F49W, V70I, S85V, I87N
B7: CD71-binding FN3 domain SEQ ID NO 363 (designed binder)
chain: B1 chain with G47D, F49W, M82L
B8: CD71-binding FN3 domain SEQ ID NO 357 (designed binder)
chain: B1 chain with M82D, S85V, I87Y
B9: CD71-binding FN3 domain SEQ ID NO 378 (designed binder)
chain: B1 chain with G47D, F49W, M82T, S85I, I87T, F88V
B10: CD71-binding FN3 domain SEQ ID NO 399 (designed binder)
chain: B1 chain with G47T, F49Y, M82T, S85T, I87T
B11: CD71-binding FN3 domain SEQ ID NO 354 (designed binder)
chain: B1 chain with G47Q, F49W, M82L, S85V, I87T
B12: CD71-binding FN3 domain SEQ ID NO 400 (designed binder)
chain: B1 chain with G47H, M82G, S85H, I87T
B13: CD71-binding FN3 domain SEQ ID NO 392 (designed binder)
chain: B1 chain with G47H, F49G, M82L, S85V, I87T
B14: CD71-binding FN3 domain SEQ ID NO 368 (designed binder)
chain: B1 chain with G47T, F49T, M82G, S85I, I87S
B15: CD71-binding FN3 domain SEQ ID NO 385 (designed binder)
chain: B1 chain with G47D, F49Y, M82H, S85Q, I87H
B16: CD71-binding FN3 domain SEQ ID NO 395 (designed binder)
chain: B1 chain with A27T, M82D, I87F
B17: CD71-binding FN3 domain SEQ ID NO 361 (designed binder)
chain: B1 chain with G47Q, M82I, I87L
B18: CD71-binding FN3 domain SEQ ID NO 377 (designed binder)
chain: B1 chain with G47Q, F49W, M82T, S85Q, I87L
B19: CD71-binding FN3 domain SEQ ID NO 376 (designed binder)
chain: B1 chain with G47A, F49L, M82N, S85E, I87K
B20: CD71-binding FN3 domain SEQ ID NO 364 (designed binder)
chain: B1 chain with K6N, G47H, M82G, S85H, I87T

biological target: T1, human CD71 extracellular domain (human, UniProt P02786 89-760); assay: primary ELISA; also: test concentration or dose not given here
T1 construct: also called hCD71; CD71-ECD
T1 sequence (P02786 89-760): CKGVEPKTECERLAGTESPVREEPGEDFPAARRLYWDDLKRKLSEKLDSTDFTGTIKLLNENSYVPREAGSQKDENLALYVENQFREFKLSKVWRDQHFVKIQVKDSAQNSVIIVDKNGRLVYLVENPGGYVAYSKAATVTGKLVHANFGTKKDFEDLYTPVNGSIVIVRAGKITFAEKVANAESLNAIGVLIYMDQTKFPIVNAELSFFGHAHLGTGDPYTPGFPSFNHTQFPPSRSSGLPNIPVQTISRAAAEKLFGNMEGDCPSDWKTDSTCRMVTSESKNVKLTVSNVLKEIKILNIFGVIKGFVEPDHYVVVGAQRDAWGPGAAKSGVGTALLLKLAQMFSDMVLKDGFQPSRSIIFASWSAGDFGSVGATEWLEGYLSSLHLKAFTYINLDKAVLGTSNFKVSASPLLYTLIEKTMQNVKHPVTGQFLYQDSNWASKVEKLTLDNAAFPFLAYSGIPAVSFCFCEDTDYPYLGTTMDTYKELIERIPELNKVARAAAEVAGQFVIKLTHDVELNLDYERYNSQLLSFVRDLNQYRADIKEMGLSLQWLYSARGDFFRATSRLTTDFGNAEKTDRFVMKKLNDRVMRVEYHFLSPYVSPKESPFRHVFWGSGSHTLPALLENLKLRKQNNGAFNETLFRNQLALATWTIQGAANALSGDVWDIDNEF

| Binder | RLU |
| --- | --- |
| B1 | 5.32e+06 RLU |
| B2 | 2.82e+06 RLU |
| B3 | 2.78e+06 RLU |
| B4 | 4.1e+06 RLU |
| B5 | 1.79e+06 RLU |
| B6 | 5.64e+06 RLU |
| B7 | 4.18e+06 RLU |
| B8 | 5.62e+06 RLU |
| B9 | 6.12e+06 RLU |
| B10 | 5.88e+06 RLU |
| B11 | 5.75e+06 RLU |
| B12 | 5.67e+06 RLU |
| B13 | 4.77e+06 RLU |
| B14 | 5.53e+06 RLU |
| B15 | 5.74e+06 RLU |
| B16 | 5.11e+06 RLU |
| B17 | 3.08e+06 RLU |
| B18 | 1.57e+06 RLU |
| B19 | 5.96e+06 RLU |
| B20 | 5.83e+06 RLU |

biological target: T2, human apical domain of CD71 (human, UniProt P02786 189-383, limits assumed); assay: primary ELISA; also: test concentration or dose not given here
T2 construct: domain: apical domain
T2 sequence (P02786 189-383 limits assumed): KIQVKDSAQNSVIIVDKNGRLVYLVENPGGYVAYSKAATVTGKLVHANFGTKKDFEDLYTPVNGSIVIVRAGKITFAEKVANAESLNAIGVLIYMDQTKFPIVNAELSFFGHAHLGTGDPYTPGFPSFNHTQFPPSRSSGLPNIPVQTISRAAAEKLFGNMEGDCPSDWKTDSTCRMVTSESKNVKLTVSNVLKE

| Binder | RLU |
| --- | --- |
| B1 | 6.5e+06 RLU |
| B2 | 2.09e+06 RLU |
| B3 | 4.19e+06 RLU |
| B4 | 5.95e+06 RLU |
| B5 | 3.88e+06 RLU |
| B6 | 5.82e+06 RLU |
| B7 | 4.91e+06 RLU |
| B8 | 6.34e+06 RLU |
| B9 | 6.12e+06 RLU |
| B10 | 5.04e+06 RLU |
| B11 | 5.25e+06 RLU |
| B12 | 6.54e+06 RLU |
| B13 | 3.9e+06 RLU |
| B14 | 6.23e+06 RLU |
| B15 | 5.91e+06 RLU |
| B16 | 6.59e+06 RLU |
| B17 | 5.01e+06 RLU |
| B18 | 3.43e+06 RLU |
| B19 | 6.47e+06 RLU |
| B20 | 6.5e+06 RLU |

biological target: T1, human CD71 extracellular domain; assay: primary ELISA; signal over HSA control; as to RLU: test concentration or dose not given here

| Binder | hCD71:HSA |
| --- | --- |
| B1 | 21 ratio |
| B2 | 187 ratio |
| B3 | 108 ratio |
| B4 | 116 ratio |
| B5 | 203 ratio |
| B6 | 41 ratio |
| B7 | 273 ratio |
| B8 | 16 ratio |
| B9 | 76 ratio |
| B10 | 297 ratio |
| B11 | 155 ratio |
| B12 | 141 ratio |
| B13 | 237 ratio |
| B14 | 218 ratio |
| B15 | 142 ratio |
| B16 | 72 ratio |
| B17 | 210 ratio |
| B18 | 125 ratio |
| B19 | 153 ratio |
| B20 | 60 ratio |

biological target: T2, human apical domain of CD71; assay: primary ELISA; signal over HSA control; as to RLU: test concentration or dose not given here

| Binder | Apical domain:HSA |
| --- | --- |
| B1 | 25 ratio |
| B2 | 139 ratio |
| B3 | 163 ratio |
| B4 | 168 ratio |
| B5 | 441 ratio |
| B6 | 42 ratio |
| B7 | 320 ratio |
| B8 | 18 ratio |
| B9 | 76 ratio |
| B10 | 255 ratio |
| B11 | 142 ratio |
| B12 | 163 ratio |
| B13 | 194 ratio |
| B14 | 246 ratio |
| B15 | 146 ratio |
| B16 | 92 ratio |
| B17 | 342 ratio |
| B18 | 274 ratio |
| B19 | 167 ratio |
| B20 | 67 ratio |
